Reference: patent publication US20220332804A1 (CSL INNOVATION, published 2022)

Tests used:
Experiment in all cases: SPR, antibody captured, C2 as analyte;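 also: biacore SPR at 37 °C, anti-C2 mAbs captured via goat anti-human IgG on CM5 chips, double-referenced sensorgrams fit to a 1:1 kinetic or steady-state model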
[1] = target: T1, human C2 L439A (human, UniProt P06681 21-752)
T1 sequence: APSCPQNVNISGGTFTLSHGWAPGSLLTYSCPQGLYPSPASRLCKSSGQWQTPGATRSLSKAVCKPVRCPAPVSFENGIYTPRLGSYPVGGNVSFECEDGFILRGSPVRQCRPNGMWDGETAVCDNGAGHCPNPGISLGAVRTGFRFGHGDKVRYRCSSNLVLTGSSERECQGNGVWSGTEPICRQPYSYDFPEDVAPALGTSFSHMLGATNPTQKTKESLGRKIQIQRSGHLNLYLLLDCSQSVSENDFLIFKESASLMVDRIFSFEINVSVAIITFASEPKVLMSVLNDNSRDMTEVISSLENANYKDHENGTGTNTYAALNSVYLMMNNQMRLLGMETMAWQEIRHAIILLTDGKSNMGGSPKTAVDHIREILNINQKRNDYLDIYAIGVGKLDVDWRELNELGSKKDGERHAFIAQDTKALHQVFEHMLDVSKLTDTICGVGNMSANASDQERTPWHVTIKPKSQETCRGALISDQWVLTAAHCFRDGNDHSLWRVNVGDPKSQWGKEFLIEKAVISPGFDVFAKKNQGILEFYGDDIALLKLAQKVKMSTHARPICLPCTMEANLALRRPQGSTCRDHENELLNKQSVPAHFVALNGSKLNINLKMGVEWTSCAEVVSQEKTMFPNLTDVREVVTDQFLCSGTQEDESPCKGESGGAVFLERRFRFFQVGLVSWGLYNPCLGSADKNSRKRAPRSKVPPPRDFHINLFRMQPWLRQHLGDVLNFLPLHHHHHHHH
Experimental: (§1) Surface plasmon resonance (SPR, Biacore) was used for all binding affinity analyses. In brief, goat anti-human IgG was directly immobilised onto the carboxymethyl dextran surface of CM5 sensorchips to approximately 12,000 RU using standard NHS/EDC chemistry at pH 5. The immobilised antibody surface was pre-conditioned with ten injections of polyclonal human IgG (Privigen 60 s) prepared at 1 μg/mL. Ligands (anti-C2 mAbs) were captured at the beginning of each cycle as described below. An adjacent spot or flow cell in which only Polyclonal IgG was capture was used as a reference surface. The goat anti-human IgG Fc antibody surface was regenerate in 100 mM H3PO4, injected for 45 seconds at the end of each cycle. Experiments were performed at 37° C. and the flow rate of each experiment was kept constant at 30 μL/min.
(§2) Sensogram data was double-referenced against a reference anti-IgG surface (i.e. minus anti-C2 mAb) and blank buffer injections obtained within each experiment. The binding data was fit to 1:1 (kinetic or steady-state) model using local Rmax and null refraction index (RI=0) when appropriate. Buffers and solutions were filtered (0.22 μm) prior to use.

[2] = target: T2, human C2 T442A (human, UniProt P06681 21-752)
T2 sequence: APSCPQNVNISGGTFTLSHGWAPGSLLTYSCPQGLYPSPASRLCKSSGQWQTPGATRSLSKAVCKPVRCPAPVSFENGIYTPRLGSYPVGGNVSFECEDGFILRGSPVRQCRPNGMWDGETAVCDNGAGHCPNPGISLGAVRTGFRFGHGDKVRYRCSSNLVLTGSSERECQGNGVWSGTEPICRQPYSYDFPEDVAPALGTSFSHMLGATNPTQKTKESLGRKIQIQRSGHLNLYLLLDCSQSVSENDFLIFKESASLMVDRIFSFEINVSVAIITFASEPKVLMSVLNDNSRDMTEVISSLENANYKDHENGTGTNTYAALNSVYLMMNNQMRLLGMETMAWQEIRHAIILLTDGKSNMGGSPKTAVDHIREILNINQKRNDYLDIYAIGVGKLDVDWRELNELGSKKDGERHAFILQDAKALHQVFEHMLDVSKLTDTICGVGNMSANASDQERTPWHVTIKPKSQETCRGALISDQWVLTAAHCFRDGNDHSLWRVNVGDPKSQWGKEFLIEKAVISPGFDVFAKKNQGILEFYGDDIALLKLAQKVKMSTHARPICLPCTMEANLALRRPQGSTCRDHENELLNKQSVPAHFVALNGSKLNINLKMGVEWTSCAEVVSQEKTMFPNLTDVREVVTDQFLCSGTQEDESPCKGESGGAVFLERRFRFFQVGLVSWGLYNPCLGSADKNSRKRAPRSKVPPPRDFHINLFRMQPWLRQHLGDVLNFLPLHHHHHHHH
Experimental: as §1, §2

[3] = target: T3, human C2 G427A (human, UniProt P06681 21-752)
T3 sequence: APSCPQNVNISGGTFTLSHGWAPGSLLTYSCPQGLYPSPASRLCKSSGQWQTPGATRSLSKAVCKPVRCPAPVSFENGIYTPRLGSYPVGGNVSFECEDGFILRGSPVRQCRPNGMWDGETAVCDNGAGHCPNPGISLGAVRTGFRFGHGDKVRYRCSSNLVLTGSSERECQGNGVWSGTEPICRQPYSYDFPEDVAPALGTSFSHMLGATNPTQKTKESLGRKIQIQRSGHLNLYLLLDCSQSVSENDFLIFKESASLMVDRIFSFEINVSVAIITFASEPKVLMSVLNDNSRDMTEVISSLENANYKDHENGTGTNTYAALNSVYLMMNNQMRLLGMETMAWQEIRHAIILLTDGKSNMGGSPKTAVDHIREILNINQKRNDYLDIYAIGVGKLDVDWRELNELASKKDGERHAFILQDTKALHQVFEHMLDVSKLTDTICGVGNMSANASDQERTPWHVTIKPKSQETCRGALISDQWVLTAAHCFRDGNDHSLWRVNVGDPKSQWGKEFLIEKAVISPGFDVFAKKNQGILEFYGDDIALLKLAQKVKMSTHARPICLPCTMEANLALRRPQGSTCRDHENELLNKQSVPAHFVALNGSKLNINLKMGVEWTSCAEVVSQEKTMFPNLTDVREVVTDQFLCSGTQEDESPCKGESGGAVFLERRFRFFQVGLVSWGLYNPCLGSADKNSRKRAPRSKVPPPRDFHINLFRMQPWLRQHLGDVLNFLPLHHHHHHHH
Experimental: as §1, §2

[4] = target: T4, human C2 D419A (human, UniProt P06681 21-752)
T4 sequence: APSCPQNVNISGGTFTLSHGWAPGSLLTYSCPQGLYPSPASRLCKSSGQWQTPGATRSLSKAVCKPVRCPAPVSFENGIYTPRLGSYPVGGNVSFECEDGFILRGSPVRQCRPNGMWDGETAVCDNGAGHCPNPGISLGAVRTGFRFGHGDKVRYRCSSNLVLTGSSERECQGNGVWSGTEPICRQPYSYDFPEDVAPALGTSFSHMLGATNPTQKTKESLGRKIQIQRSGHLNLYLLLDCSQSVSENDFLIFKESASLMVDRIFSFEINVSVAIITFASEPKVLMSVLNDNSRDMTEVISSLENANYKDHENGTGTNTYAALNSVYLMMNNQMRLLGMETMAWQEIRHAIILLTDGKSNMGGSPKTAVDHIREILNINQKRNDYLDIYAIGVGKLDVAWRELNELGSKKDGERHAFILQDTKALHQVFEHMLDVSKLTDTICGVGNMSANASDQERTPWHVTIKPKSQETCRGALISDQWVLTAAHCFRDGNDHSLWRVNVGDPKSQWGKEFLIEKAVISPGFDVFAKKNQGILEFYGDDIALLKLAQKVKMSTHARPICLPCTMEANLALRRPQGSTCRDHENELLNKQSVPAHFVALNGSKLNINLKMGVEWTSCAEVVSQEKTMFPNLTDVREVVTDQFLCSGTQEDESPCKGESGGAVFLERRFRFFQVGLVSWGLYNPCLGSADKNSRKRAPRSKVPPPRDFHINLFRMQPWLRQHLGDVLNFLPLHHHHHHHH
Experimental: as §1, §2

B1: RF16-226 (antibody, human IgG4 S228P, lambda)
heavy: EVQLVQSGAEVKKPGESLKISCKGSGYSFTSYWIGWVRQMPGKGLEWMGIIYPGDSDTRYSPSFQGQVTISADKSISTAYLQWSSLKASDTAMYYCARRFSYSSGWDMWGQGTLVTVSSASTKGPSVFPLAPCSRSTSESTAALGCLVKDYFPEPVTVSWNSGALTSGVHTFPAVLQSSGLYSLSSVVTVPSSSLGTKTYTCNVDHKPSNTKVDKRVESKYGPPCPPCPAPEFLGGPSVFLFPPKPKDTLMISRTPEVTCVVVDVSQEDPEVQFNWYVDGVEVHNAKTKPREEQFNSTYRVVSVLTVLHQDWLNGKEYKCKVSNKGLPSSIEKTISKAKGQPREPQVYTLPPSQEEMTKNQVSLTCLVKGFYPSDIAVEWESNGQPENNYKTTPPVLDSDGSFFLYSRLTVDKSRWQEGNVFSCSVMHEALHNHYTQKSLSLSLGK
light: SYELTQPPSVSVSPGQTARITCSGDALTSKYVAWYQQKSGLAPLLVIYEDTRRPSGIPAKFSGSSSGSVATLTISGAHGDDEADYYCYSTDASGHQRVFGGGTKLTVLSQPKAAPSVTLFPPSSEELQANKATLVCLISDFYPGAVTVAWKADGSPVKAGVETTKPSKQSNNKYAASSYLSLTPEQWKSHRSYSCQVTHEGSTVEKTVAPTECS
notes: pH-dependent anti-C2 antibody from a phage display library; also called WT
Kd [1]: 118 nM
Kd [2]: 23.7 nM
Kd [3]: 4.2 nM
Kd [4]: 17.6 nM
